Data: patent US20170145086A1 (VISTERRA, published 2017)

Tests used:
[1] = biological target: human TNFα (TNFSF2; Adipogen) (human, UniProt P01375 85-233, limits assumed); test: indirect ELISA, cytokine coated
Protocol: (§1) Selected anti-APRIL antibodies were evaluated for potential cross-reactivity with other members of the TNFa superfamily (TNFSF) family of cytokines, including: human TNFα (TNFSF2; Adipogen), human […] (TNFSF4, Adipogen), human FasL (TNFSF6, Adipogen), human TRAIL (TNFSF10, Adipogen), human RANKL (TNFSF11; Adipogen), human Tweak (TNFSF12; Abcam), human and mouse BAFF (TNFSF13B, AB Biosciences and Adipogen, respectively), and human LIGHT (TNFSF14, Adipogen). These cytokines share variable degree of sequence as well as higher order structural homologies. Among them, BAFF appears to be the most closely related to APRIL, with 29% identity and 53% amino acid sequence similarity.
(§2) Binding was evaluated by an indirect ELISA protocol using similar methods described for evaluation of APRIL binding; cytokines were immobilized to ELISA plate at 50 ng per well and then exposed to a solution of each of the test antibodies at a fixed concentration of 10 μg/ml Anti-human or anti-mouse Ig-HRP polyclonal antibody conjugates (Jackson Laboratories) were used for detection of antibody binding. The results presented in FIG. 36 indicated eleven of the twelve antibodies tested in this assay to specifically bind APRIL with no measurable cross-reactivity with the other TNFSF members substantially above assay background.

[2] = biological target: T1, human FasL (TNFSF6, Adipogen) (human, UniProt P48023 103-281, limits assumed); test: indirect ELISA, cytokine coated
T1 sequence (looked up): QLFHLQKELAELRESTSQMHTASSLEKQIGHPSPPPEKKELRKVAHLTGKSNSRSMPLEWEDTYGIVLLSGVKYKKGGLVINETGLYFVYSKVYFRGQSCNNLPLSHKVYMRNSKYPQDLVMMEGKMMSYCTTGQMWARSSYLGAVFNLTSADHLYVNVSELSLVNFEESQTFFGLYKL
Protocol: as §1, §2

[3] = biological target: human TRAIL (TNFSF10, Adipogen) (human, UniProt P50591 95-281, limits assumed); test: indirect ELISA, cytokine coated
Chain of human TRAIL (TNFSF10, Adipogen) (P50591 95-281 limits assumed): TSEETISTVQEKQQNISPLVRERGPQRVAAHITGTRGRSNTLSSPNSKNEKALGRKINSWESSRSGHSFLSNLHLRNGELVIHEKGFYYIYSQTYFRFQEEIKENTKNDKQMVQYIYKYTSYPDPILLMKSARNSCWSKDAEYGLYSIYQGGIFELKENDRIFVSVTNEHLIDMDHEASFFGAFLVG
Protocol: as §1, §2

[4] = biological target: T2, human RANKL (TNFSF11; Adipogen) (human, UniProt O14788 152-317, limits assumed); test: indirect ELISA, cytokine coated
T2 sequence (looked up): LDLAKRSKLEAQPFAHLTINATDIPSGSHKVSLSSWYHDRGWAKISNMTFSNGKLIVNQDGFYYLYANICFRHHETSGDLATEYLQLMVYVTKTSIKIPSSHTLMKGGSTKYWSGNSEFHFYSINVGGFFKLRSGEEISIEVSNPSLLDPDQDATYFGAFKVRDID
Protocol: as §1, §2

[5] = biological target: human BAFF (TNFSF13B, AB Biosciences) (human, UniProt Q9Y275 134-285, limits assumed); test: indirect ELISA, cytokine coated
Chain of human BAFF (TNFSF13B, AB Biosciences) (Q9Y275 134-285 limits assumed): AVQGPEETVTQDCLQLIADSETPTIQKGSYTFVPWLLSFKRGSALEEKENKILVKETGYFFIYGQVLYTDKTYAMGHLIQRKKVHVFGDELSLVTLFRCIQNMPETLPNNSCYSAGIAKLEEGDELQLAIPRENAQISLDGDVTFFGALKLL
Protocol: as §1, §2

[6] = biological target: mouse BAFF (TNFSF13B, Adipogen) (mouse, UniProt Q9WU72 127-309, limits assumed); test: indirect ELISA, cytokine coated
Chain of mouse BAFF (TNFSF13B, Adipogen) (Q9WU72 127-309 limits assumed): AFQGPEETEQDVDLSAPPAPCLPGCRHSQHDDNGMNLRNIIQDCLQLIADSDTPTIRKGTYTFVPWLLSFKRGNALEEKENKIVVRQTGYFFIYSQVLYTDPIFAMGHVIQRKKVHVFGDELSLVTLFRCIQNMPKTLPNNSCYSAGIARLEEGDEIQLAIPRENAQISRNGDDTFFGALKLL
Protocol: as §1, §2

[7] = biological target: human LIGHT (TNFSF14, Adipogen) (human, UniProt O43557 89-240, limits assumed); test: indirect ELISA, cytokine coated
Chain of human LIGHT (TNFSF14, Adipogen) (O43557 89-240 limits assumed): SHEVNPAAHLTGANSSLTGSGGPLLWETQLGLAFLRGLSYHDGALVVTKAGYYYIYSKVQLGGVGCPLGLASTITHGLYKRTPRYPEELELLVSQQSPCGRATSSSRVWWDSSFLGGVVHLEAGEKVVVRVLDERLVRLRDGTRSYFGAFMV
Protocol: as §1, §2

[8] = biological target: T3, HA-GCN4 hAPRIL (amino acid residues 105-250) (human, UniProt O75888 105-250); test: blocking ELISA; blocked: human APRIL binding to human BCMA-Fc; parameters: concentration or dose not given beside the values
T3 construct: Bought (R&D Systems); also called HA-tagged GCN4 human APRIL; HA-GCN4-huAPRIL; not shown: N-terminal HA tag; GCN4 isoleucine zipper oligomerization domain
T3 sequence: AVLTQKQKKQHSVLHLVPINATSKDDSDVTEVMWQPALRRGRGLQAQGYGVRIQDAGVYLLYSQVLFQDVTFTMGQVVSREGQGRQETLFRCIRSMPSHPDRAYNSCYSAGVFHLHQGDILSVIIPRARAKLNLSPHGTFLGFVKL
Protocol: (§3) FIGS. 19A-19B depict the antibody inhibition of APRIL binding to TNFSF receptors TACI (FIG. 19A) and BCMA (FIG. 19B). Assay is based on blocking ELISA using recombinant human APRIL (R&D Systems) and Human TACI-Fc. Inhibition was analyzed by non-linear regression using a four parameter fit.
(§4) Recombinant TACI-Fc or BCMA-Fc was coated on 96 well plates in 0.1 M carbonate-bicarbonate buffer (pH 9.6), overnight at 4° C. Plates were washed three times with 1×PBST (PBS+0.025% Tween 20) followed by blocking with 1% BSA in 1×PBS, 37° C. for 1 hour. All subsequent wash steps were carried out with 1×PBST. To assess antibody blocking, either 15 ng/mL or 50 ng/mL HA-GCN4-huAPRIL was preincubated with varying antibody concentrations ranging from 0.03-30 μg/mL in binding buffer comprised of 1% BSA and 0.025% Tween-20 in 1×PBS. Preincubation was carried out at 30° C. for 1 hour with mixing. Antibody-APRIL premix with 50 ng/mL APRIL or 15 ng/mL APRIL was then added to TACI-Fc coated or BCMA-Fc coated plates, respectively, and incubated for an additional hour at 30° C. HA-tagged APRIL binding to either receptor was quantified using a goat polyclonal anti-HA tag-HRP antibody (Abcam) added at a 1:10000 dilution followed by colorimetric development using 100 μl/well of freshly prepared TMB substrate (KPL) carried out for up to 30 minutes at room temperature before quenching enzymatic reaction by the addition of 1N sulfuric acid. ELISA signal was quantified by absorbance at 450 nm. ELISA data was analyzed by non-linear regression. IC₅₀ values were calculated based on a 4 parameter fit of antibody titration curves. […] Non-blocking antibodies Aprly-1 or Aprly-5 (Enzo Biosciences) were used as negative controls. Mouse specific, blocking antibody aprily-1-1 (Adipogen) was generally used as a positive control in experiments using mouse APRIL (HA-GCN4-mAPRIL).

[9] = biological target: T3, HA-GCN4 hAPRIL (amino acid residues …); test: blocking ELISA; blocked: human APRIL binding to human TACI-Fc; parameters: concentration or dose not given beside the values
Protocol: as §3, §4

Chain of human TNFα (TNFSF2; Adipogen) (P01375 85-233 limits assumed): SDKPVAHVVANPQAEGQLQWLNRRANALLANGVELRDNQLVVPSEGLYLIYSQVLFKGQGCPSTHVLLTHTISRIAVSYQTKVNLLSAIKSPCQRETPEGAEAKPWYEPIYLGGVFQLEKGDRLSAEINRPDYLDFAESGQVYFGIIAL

B1: monoclonal antibody 3530 (antibody, mouse IgG2, V domains shown)
VH: QVQLQQSGAELVRPGASVKLSCKASGYTFTDHEMHWVRQTPVHGLEWIGVIDPDTGDTTYNQKFKGKATLTADKSSSTAYMDLRSLTSEDSAVFYCTRWTGGDYWGHGTTLTVSS
VL: DAVMTQTPLSLSVTIGQPASISCKSSQSLLYSDGKTYLNWFQQRPGQSPKRLMYQVSKLDPGIPDRFSGSGSETDFTLKISRVEAEDLGVYYCLQGTYYPYTFGSGTKLEIK
[1]
  binding result: no binding (tested: 10 µg/ml (p-1128))
[2]
  binding result: no binding (tested: 10 µg/ml (p-1128))
[3]
  binding result: no binding (tested: 10 µg/ml (p-1128))
[4]
  binding result: no binding (tested: 10 µg/ml (p-1128))
[5]
  binding result: no binding (tested: 10 µg/ml (p-1128))
[6]
  binding result: no binding (tested: 10 µg/ml (p-1128))
[7]
  binding result: no binding (tested: 10 µg/ml (p-1128))
[8]
  % Inhibition: 37%
[9]
  % Inhibition: 89%

B2: monoclonal antibody 4540 (antibody, V domains shown)
VH: QVQLQQSGPELVKPGASVKISCKASGYTFADYYINWVKQRPGQGLEWIGWIFPGSGSTYYNEKFKGKATLTVDKSSSTAYMLLSSLTSEDSAVYFCARGDSGRAMDYWGQGTSVTVSS
VL: DIQMTQSPSSLSASLGGKVTITCKASQDINKYIAWYQHKPGKGPRLLIHYTSTLQSGIPSRFSGSGSGRDYSFSISNLEPEDNATYYCLQYDNLLTFGAGTKLELK
notes: mouse-derived
[1]
  binding result: no binding (tested: 10 µg/ml (p-1128))
[2]
  binding result: no binding (tested: 10 µg/ml (p-1128))
[3]
  binding result: no binding (tested: 10 µg/ml (p-1128))
[4]
  binding result: no binding (tested: 10 µg/ml (p-1128))
[5]
  binding result: no binding (tested: 10 µg/ml (p-1128))
[6]
  binding result: no binding (tested: 10 µg/ml (p-1128))
[7]
  binding result: no binding (tested: 10 µg/ml (p-1128))
[8]
  % Inhibition: 98%
[9]
  % Inhibition: 65%

B3: monoclonal antibody 3833 (antibody, V domains shown)
VH: QVQLQQSGAELVRPGTSVKMSCKAAGYTFTNYWIGWVKQRPGHGLEWIGDIYPGGIGGGYTKYNEKFKGKATLTADTSSSTAYMQLGSLTSEDSAIYFCSRSETGRAMDYWGQGTSVTVSS
VL: DIQMTQSPSSLSASLGGKVTITCKASQDINKYIAWYQHKPGKGPRLLIHYTSTLKPGIPSRFSGSGSGRDYSFSISDLEPEDIATYYCLQYDNLNTFGGGTKLEIK
notes: mouse-derived
[1]
  binding result: no binding (tested: 10 µg/ml (p-1128))
[3]
  binding result: no binding (tested: 10 µg/ml (p-1128))
[4]
  binding result: no binding (tested: 10 µg/ml (p-1128))
[5]
  binding result: no binding (tested: 10 µg/ml (p-1128))
[6]
  binding result: no binding (tested: 10 µg/ml (p-1128))
[7]
  binding result: no binding (tested: 10 µg/ml (p-1128))
[8]
  % Inhibition: 96%
[9]
  % Inhibition: 72%

B4: monoclonal antibody 2218 (antibody, mouse IgG2, V domains shown)
VH: DVQLQESGPGLVKPSQSLSLTCSVTGYSITSGYYWNWIRQFPGNKLEWMGYISYDGYNNYNPSLKNRISITRDTSKNQFFLKLNSVTTEDTATYYCANYYDYEDWYFGVWGTGTTVTVSS
VL: DIVLTQSPASLAMSLGKRATISCRASESVSIIGTNSIHWYQQKPGQPPKLLIYHASNLETGVPARFSGSGSRTDFTLTIDPVEEDDVAIYYCLQSRKIPYTFGGGTKLEIK
[1]
  binding result: no binding (tested: 10 µg/ml (p-1128))
[2]
  binding result: no binding (tested: 10 µg/ml (p-1128))
[3]
  binding result: no binding (tested: 10 µg/ml (p-1128))
[4]
  binding result: no binding (tested: 10 µg/ml (p-1128))
[5]
  binding result: no binding (tested: 10 µg/ml (p-1128))
[6]
  binding result: no binding (tested: 10 µg/ml (p-1128))
[7]
  binding result: no binding (tested: 10 µg/ml (p-1128))
[8]
  % Inhibition: 99%
[9]
  % Inhibition: 40%

B5: monoclonal antibody 3631 (antibody, V domains shown)
VH: EIQLQQSGPELVKPGASVKVSCKASGYSFTDYNIYWVKQSHGKSLEWIGYIDPSNGGPGYNQKFRGKATLTVDKSSSTAFLHLNSLTSEDSAVYYCARRDNYGSGTMDYWGQGTSVTVSS
VL: DIVMTQSQKFMSTSVGDRVSITCKASQNVGTDVSWYQQKPGKSPKPLIYWASNRFTGVPDRFIGSGSGTDFTLTISNVQSEDLADYFCEQYSIYPLTFGAGTKLELK
notes: mouse-derived
[1]
  binding result: no binding (tested: 10 µg/ml (p-1128))
[2]
  binding result: no binding (tested: 10 µg/ml (p-1128))
[3]
  binding result: no binding (tested: 10 µg/ml (p-1128))
[4]
  binding result: no binding (tested: 10 µg/ml (p-1128))
[7]
  binding result: no binding (tested: 10 µg/ml (p-1128))
[8]
  % Inhibition: 100%
[9]
  % Inhibition: 63%

B6: monoclonal antibody 3732 (antibody, V domains shown)
VH: EIQLQQSGPELVKPGASVKVSCKASGYSFTDDNMYWVKQSHGKSLEWIGYIDPLNGGTGYNQKFKGKATLTVDKSSSTAFLHLNSLTSEDSAVYYCARRDNYATGTMDYWGQGTSVTVSS
VL: DIVMTQSQKFMSTSVGDRVSITCKASKNVGTDVSWYQQKPGKSPKPLIYWASNRFTGVPDRFTGSGSGTDFTLTINNVQSEDLADYFCEQYSSYPLTFGAGTKLELK
notes: mouse-derived
[1]
  binding result: no binding (tested: 10 µg/ml (p-1128))
[2]
  binding result: no binding (tested: 10 µg/ml (p-1128))
[3]
  binding result: no binding (tested: 10 µg/ml (p-1128))
[4]
  binding result: no binding (tested: 10 µg/ml (p-1128))
[5]
  binding result: no binding (tested: 10 µg/ml (p-1128))
[6]
  binding result: no binding (tested: 10 µg/ml (p-1128))
[7]
  binding result: no binding (tested: 10 µg/ml (p-1128))
[8]
  % Inhibition: 100%
